Experiments:
[1] = target: Plasmodium falciparum myosin A tail domain interacting protein, residues 61–204 (PfMTIPΔ60) (Plasmodium falciparum) (UniProt Q8I4W8); assay: differential scanning fluorimetry; 5 μM PfMTIPΔ60 with 200 μM peptide in buffer A (20 mM HEPES pH 7.5, 50 mM NaCl, 1 mM TCEP), 10× SYPRO Orange, 15–80 °C
[2] = target: Plasmodium falciparum myosin A tail domain interacting protein, residues 61–204 (PfMTIPΔ60) (Plasmodium falciparum) (UniProt Q8I4W8); assay: ITC; 303 K; cell with about 200 μL of 20 μM PfMTIPΔ60 in buffer A (20 mM HEPES pH 7.5, 50 mM NaCl, 1 mM TCEP); peptide added in 2 μL injections from 250 μM; single site fit; n=1

Substance | Tm of the complex [1] [°C] | Kd [2] [nM]
acetylated peptide control1 (acetyl-capped myoA tail from Leu 805) (from UniProt Q8IDR3 805-818) | 45.4 | 
acetylated peptide control2 (acetyl-capped myoA tail from Leu 804) (from UniProt Q8IDR3 804-818) | 54.5 | 
acetylated peptide control3 (acetyl-capped myoA tail from Ser 803) (from UniProt Q8IDR3 803-818) | 54.9 | 106
